T1: MBP-KYP recombinant protein (Arabidopsis thaliana, UniProt Q8GZB6 1-624)
T1 construct: KRYPTONITE (KYP/SUVH4), Arabidopsis thaliana; KYP CDS cloned into the pMAL-c5v vector; The purification is not described; source: E. coli BL21(DE3), recombinant protein
T1 sequence (looked up): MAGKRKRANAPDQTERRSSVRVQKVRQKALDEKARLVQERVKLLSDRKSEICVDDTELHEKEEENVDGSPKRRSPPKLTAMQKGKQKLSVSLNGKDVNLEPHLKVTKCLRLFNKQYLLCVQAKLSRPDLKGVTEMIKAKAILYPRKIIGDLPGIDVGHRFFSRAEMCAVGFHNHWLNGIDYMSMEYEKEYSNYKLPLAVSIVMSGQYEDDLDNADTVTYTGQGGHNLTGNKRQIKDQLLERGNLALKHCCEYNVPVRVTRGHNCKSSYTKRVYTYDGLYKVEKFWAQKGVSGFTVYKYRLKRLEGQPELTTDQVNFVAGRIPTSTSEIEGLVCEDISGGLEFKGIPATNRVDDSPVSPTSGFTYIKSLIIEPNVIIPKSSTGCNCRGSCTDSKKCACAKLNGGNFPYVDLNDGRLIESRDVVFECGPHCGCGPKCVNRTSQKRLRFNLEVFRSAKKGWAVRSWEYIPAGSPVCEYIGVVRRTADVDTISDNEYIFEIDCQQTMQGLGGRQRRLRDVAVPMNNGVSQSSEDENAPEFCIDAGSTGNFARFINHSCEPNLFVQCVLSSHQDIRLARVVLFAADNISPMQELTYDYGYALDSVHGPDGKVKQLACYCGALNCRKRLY

B1: maltose-binding protein (MBP) fused AS1 (MBP-AS1) (natural protein, Arabidopsis thaliana, UniProt O80931 1-367, looked up)
chain: MKERQRWSGEEDALLRAYVRQFGPREWHLVSERMNKPLNRDAKSCLERWKNYLKPGIKKGSLTEEEQRLVIRLQEKHGNKWKKIAAEVPGRTAKRLGKWWEVFKEKQQREEKESNKRVEPIDESKYDRILESFAEKLVKERSNVVPAAAAAATVVMANSNGGFLHSEQQVQPPNPVIPPWLATSNNGNNVVARPPSVTLTLSPSTVAAAAPQPPIPWLQQQQPERAENGPGGLVLGSMMPSCSGSSESVFLSELVECCRELEEGHRAWADHKKEAAWRLRRLELQLESEKTCRQREKMEEIEAKMKALREEQKNAMEKIEGEYREQLVGLRRDAEAKDQKLADQWTSRHIRLTKFLEQQMGCRLDRP
notes: source: E. coli BL21(DE3), recombinant protein
B2: maltose-binding protein (MBP) fused AS2 (MBP-AS2) (natural protein, Arabidopsis thaliana, UniProt O04479 1-199, looked up)
chain: MASSSTNSPCAACKFLRRKCQPECVFAPYFPPDQPQKFANVHKVFGASNVTKLLNELHPSQREDAVNSLAYEADMRLRDPVYGCVGVISLLQHQLRQLQIDLSCAKSELSKYQSLGILAATHQSLGINLLAGAADGTATAVRDHYHHHQFFPREQMFGGLDVPAGNNYDGGILAIGQITQFQQPRAAAGDDGRRTVDPS
notes: as for B1

Legend:
[1] = target: T1, MBP-KYP recombinant protein; experiment: quartz crystal microbalance (QCM); AffinixQN QCM biosensor; first protein immobilised on the Au electrode until saturation (AS1 for the AS1-KYP pair), second protein injected repeatedly; 50 mM Tris-HCl, 150 mM NaCl, 1 mM DTT, 25 °C; Langmuir equation; three replicates; settings: both partners purified
[2] = target: B1; experiment: as above; settings: both partners purified

Binder B1 has a Kd [1] of 33.6 µM.

Binder B2 has a Kd [2] of 25.3 µM and a Kd [1] of 18.6 µM.
